Test results reported in patent publication US20260207757A1 (IGF ONCOLOGY, published 2026).
One block for each binder: values may come before it.

Columns and labels:
[1] = target: T1, type 1 IGF receptor (IGF-1R) (human, UniProt P08069 31-1367); experiment: competition binding to IGF receptors against radioactive wild type IGF
T1 construct: whole, on cells; also called IGF-1 receptor; CD221
Method: 200 ul of each of these was mixed rapidly with 1.8 ml of refold buffer. Refold buffer was 1.4 M urea, 100 mM glycine, 0.5 M NaCl, 19% ethanol, 0.5 mM GSSG, 4 mM GSH, pH 9.5.

dihydrofolate reductase = experiment: cell-based or functional assay

T1 sequence (P08069 31-1367): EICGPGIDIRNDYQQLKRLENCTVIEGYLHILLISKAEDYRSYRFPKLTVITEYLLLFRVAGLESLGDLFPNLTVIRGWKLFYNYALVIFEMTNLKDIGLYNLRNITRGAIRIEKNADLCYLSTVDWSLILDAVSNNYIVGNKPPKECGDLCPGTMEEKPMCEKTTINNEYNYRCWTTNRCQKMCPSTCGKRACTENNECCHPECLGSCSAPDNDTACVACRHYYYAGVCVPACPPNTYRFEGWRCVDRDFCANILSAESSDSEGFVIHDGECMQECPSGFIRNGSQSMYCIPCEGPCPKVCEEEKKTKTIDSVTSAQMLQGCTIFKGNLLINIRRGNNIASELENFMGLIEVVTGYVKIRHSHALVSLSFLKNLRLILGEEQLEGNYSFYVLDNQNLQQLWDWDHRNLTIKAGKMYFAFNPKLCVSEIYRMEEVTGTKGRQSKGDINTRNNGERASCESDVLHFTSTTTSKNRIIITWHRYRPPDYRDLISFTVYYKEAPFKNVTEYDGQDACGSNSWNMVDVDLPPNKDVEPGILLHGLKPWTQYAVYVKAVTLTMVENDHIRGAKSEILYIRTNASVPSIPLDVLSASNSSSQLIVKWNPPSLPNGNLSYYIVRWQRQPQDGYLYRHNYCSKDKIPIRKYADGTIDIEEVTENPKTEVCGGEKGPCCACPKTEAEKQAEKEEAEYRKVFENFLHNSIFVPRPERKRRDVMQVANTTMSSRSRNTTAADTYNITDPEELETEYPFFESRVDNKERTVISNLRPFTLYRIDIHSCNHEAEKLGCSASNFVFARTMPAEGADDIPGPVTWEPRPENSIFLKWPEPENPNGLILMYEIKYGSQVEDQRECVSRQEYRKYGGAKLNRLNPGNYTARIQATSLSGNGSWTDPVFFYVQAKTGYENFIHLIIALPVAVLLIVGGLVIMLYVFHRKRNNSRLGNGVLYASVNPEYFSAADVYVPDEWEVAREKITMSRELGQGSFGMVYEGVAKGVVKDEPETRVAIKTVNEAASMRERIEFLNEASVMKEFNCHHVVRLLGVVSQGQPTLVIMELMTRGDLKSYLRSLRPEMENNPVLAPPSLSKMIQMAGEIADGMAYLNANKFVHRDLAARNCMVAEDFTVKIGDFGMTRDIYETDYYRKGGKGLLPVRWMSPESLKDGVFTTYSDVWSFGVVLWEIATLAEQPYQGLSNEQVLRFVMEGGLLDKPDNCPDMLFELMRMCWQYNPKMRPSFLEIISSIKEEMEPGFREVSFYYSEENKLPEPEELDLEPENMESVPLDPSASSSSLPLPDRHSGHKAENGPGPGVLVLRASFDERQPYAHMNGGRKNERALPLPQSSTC

B3: 764IGF (ligand)
chain: MVKGKHHHHHHNGKGKSKFVNQHLCGSHLVEALYLVCGDRGFYFNKPTGYGSSSRRAPQTGIVDECCFRSCDLRRLEMYCAPLKPAKSA
notes: also called His6-K5-IGF132
- Kd [1]: ~100 nM

B4: LR3IGF-MTX (ligand)
chain: MFPAMPLSSLFVNGPRTLCGALVDALQFVCGDRGFYFNKPTGYGSSSRRAPQTGIVDECCFRSCDLRRLEMYCAPLKPAKSEA
modifications: methotrexate on amino groups (3 lysine side chains and the N-terminal amino group available), MTX:protein ratio of 2.8
- IC50 (inhibition of dihydrofolate reductase activity) (dihydrofolate reductase): 99 nEq/L

Further binders by falling Kd [1], results first:

- Kd [1]: ~40 nM
B2: 785IGF (ligand)
chain: MVKQIESKTAFQEALDAAGDKLVVVDFSATWCGHCKMIKPFFHSLSEKYSNVIFLEVDVDDSQDVASESEVKSMPTFQFFKKGQKVGEFSGANKEKLEATINELVGSKSGHHHHHHSAKGFVNQHLCGSHLVEALYLVCGDRGFYFNKPTGYGSSSRRAPQTGIVDECCFRSCDLRRLEMYCAPLKPAKSA
notes: also called mutTrx-IGF132

- Kd [1]: ~2 nM
B1: 403IGF (ligand)
chain: MTSGHHHHHHSAGVNGFVNQHLCGSHLVEALYLVCGDRGFYFNKPTGYGSSSRRAPQTGIVDECCFRSCDLRRLEMYCAPLKPAKSA
notes: T0001 describes it as His6-IGF; also called His6-IGF
